From a protein production outcome set (Wang et al. 2014)

Test: label from the status in PepcDB records

Row | Sequence | protein production
1 | MRKLFIPLLLFSALEANEKNGFFIEAGFETGLLEGTQTQEKRHTTTKNTYATYNYLPTDTILKRAANLFTNAEAISKLKFSSLSPVRVLYMYNGQLTIENFLPYNLSNVKLSFTDAQGNVIDLGVIETIPKHSKIVLPGEAFDSLKIDPYTLFLPKIEATSTSVSDANTQRVFETLNKIKTDLVVNYRNENKFKDHENHWEAFTPQTAEEFTNLMLNMIAVLDSQSWGDAILNAPFEFTNKDGGEECDTSKENECVNPGTNGRVNSKVDQQYVLNKQDIVNKFRNKADLDVVILKDSGVVGLGSDITPSNNDDGKHYGQLGVVASALDPKKLFGDNLKTINLEDLRTILHEFSHTKGYTHNGNMTYQRVPVMKDGQVEKDSNGKPKDSDGLPYNVCSLYGGQGQSAFPSNYPNSIYHNCADVPAGFLGVTAAVWQQLINQNALPINYANLSTQTNYNLNASLNTQDLANSMLSTIQKTFVTSSVTNHYSSSASQSFRSPILGVNAKIGYQNYFNDFIGLAYYGIIKYNYAKAINQKVQQLSYGGGIDLLLDFITTYSNKNSPTGIQTKRNFSSSFGIFGGLRGLYNSYYVLNKVKGSGNLDVATGLNYRYKHSKYSVGISIPLIQRKASVVSNGGDYTNSFVFNEGASHFKVFFNYGWVF | failed
2 | MRKLLLGLSALTLATASAAAAQDPGPAAPVQYEVAFPNATHREARITATFRKVPKGALQLRMSRSSPGRYAIHEFAKNVYQVTAVDGAGKPLKVDRAEPYGWSVSGHDGTVKVTYTLYADRGDGTYSQIDTTHAHLNMPATFLWAVGYHDKPIRVRFERADPSWKIATQLPPVAGQPDSFWAPNLQYFMDSPTELSAMTVREWKVTDKGRDYTFRLALHHTGTEADADTFAEKLKAIVPEHIKVFGELPKFDYGEYTFIADYMPQITGDGMEHRNSTFISQPRSLFRGNFSQLGTASHELFHAWNVERIRPAELEPFDFTKANPTPSLWLAEGFTQYYGPLLIRRAGQSSMDEFLTGLSGTLNGVVNGPGRLYGSPQEMSLRAPFVDAAAALDPVNPNIFTSYYPYGAVIGLALDLQLRGRDKPLSLDDFMKQMWRAHGVTEKPYTPADVRAALAKTTGDQAFADAFFKASIEGSALPDFAPLLERAGLKLRQKAPKKAWLGAARVKVSGTELLLDAPPVPNSPLYGAGVEVGDRIISIGRFVFANESDWTDALDRLKPGEAMTVQFIQRGQVREAPMTIAADPTLEVVRFEKVDLKPTEAQLAFRTAWLGAEAEAAK | failed
3 | MRKRARIIYNPTSGKELFKRELPDALIKLEKAGYETSAYATEKIGDATLEAERAMHENYDVLIAAGGDGTLNEVVNGIAEKPNRPKLGVIPMGTVNDFGRALHIPNDIMGALDVIIEGHSTKVDIGKMNNRY | failed
4 | MRKSFNLIWMVFGFLLLIVGCNEDKKSTAFDPNQPVKFTEFMPDSGGIRTKFIVKGSNFGEDKSQVKVYFKDEVGNEREALVLGVKPDVIYAQVPKQAGGESHVRVEIAGKEAELSNAEKTFKYIVTSSVSTVVGKAKEGGNKDGTLGETTFNTPRYVAVDNDDNVFIFDSDGRTRLSSIEQNKTITLLDGMVIDQPLFIDKEKKQLFGPCDNANFGCFLFDANVSWVADKMGQLLANGGWMHSVVLDPVDSTFVIYRQNTGQLWTQPFDKNRRTLNPNKAKRIGTLYNTGSNGLCAYNPVDKYVYCVLHSKSAVYRFKLTRDADGWPALDGDIDEYIPGAGAGFRDGDVQEAQFKEPRGIAIDKEGNLYIADVGNNRIRKVDTKLNVVTTIAGSGAAGYKDGDPLEAQFNQPWGVYLDKNEFLYIADQNNHCIRKLAIE | failed
5 | MRKVLLTIRKIAMTQPTSRKADLVYQLNDRPPLPQTLFAALQHLLAMFVAVITPSLIICQSLGVPADQTNTIISMSLFASGLSSFIQIRTFGPIGSGLLSIQGTSFNFLGPIIGAGLALKAGGADIETMMAAIFGTILVASSAEILLSRVLQFAQRIITPLVSGIVVTLIGLTLVQVGLISMGGGYAAMADGSFGSLDKLALAGTVLAIIVLLNRAHNPYVRVASIVIAMLVGYVMAYLMGMVNTDNLAETQFIALPIPMQYGLGFDWSLFIPLVLIFLITALEAIGDITATSEVSGEPVKGPVYMKRIKGGVLADGLNSALAAVFNSFPNSTFSQNNGVILLTGVASRYVGYFIAGMLVLLGLFPGVASFVQLIPEPVLGGATIVMFGTIAAAGVRIISRVDLDRRAILIMALSFSMGLGIAQKPEILQFMPEFIKNLFSSGVAAGGITAIVLNLLLPEVRRDEDAASVAKTEAAQESN | failed
6 | MRKVLMFLSTALLLAILSLSFTGLDLKAKAASDLYPLPAPIIDVFPDDGLAKDMAKNLNKDSVNDVIDQDDLDALTGLGFETSTITNDSMQLLERAMFNNVTDVSIMEFGAKLTEFPDITTIPHLKTLFFADPPGRLTRNLSLPNYQNYPEMDTITMSGNNLIGSIPDFTGMPALKQLYMSEMLITSDELPNFNNIPLLITLDLSSNQLTTIPDFQNIPNLTFLDLNANLLTNTPDFQNLPKLTDLNLRHNNLTGTMVNYTNLPSLESLNLDYNFLTELPSNVLDTIYVQSQNGELPDQTINQGDTCTIDLPIYFQMEETNMLVSPEVTGEYIGISVIQLPTTVNEEGNTITVDTSALSPGEYKLDVSYNHNYATGGVCSYDWNVTIN | failed
7 | MRKVQVLVQTRDGKKTVYEVDRLGTVASLKARIGQVMSVPMGFSRLSYKGRVLSNQSVLEDLGPNKSTLDLTWKPVVLTANQSSKLSKFGYGRIDDSEVMFTLIGGYQQREEYPGGLVNPPDDESQLNFNAGDDDDALEAQDMTGHDLSSIQTDDLSLKGQTEPELDCSIGSHGFSGSQEEGHE | failed
8 | MRKVRIANEQTEESDIIKIVHLSDIHFSEAYYMPEIADSMLQIINESSPDIVIITGDLTENGFAAEYNGAKNFIDKIECKNKVIVPGNHDSKNAGYLFFEDIFKARSSSGYFGDVTVIGLDSSQPELDDGHIGRENYGWIESTFSTGSFKVFALHHHLIPIPKTGRGNNVLVDAGDVLELLDRSGVNLVLCGHWHIPWVWRLNDMFIISAGTVCSSKIRGKTSQCYNLIELETPESECTRWHLRITRVFSSGIKELVVDNIV | failed
9 | MRKYLAEFLGTFMLVFLGTATVVIAKGDVLAIGLAFGLAITVSAYAFGGISGGHFNPAVTTAMLINRRIDAADAIGYIIAQIIGAIVASAAVKSFVSALGLSATLLGQTDFPKIGSGMAFFVEALVTFLFLMVILNVTSNDHGNADFAGLTIGVTLAFLIIVALNLTGGSLNPARSIGPAIFAGGSALSHLWVYILAPEVGAILAAFCARVMGSED | failed
10 | MRLEGEGRSARAGQNLSRAGSARRGAPRDLSMNNLTELQPGLFHHLRFLEELRLSGNHLSHIPGQAFSGLYSLKILMLQNNQLGGIPAEALWELPSLQSLDLNYNKLQEFPVAIRTLGRLQELGFHNNNIKAIPEKAFMGNPLLQTIHFYDNPIQFVGRSAFQYLPKLHTLSLNGAMDIQEFPDLKGTTSLEILTLTRAGIRLLPSGMCQQLPRLRVLELSHNQIEELPSLHRCQKLEEIGLQHNRIWEIGADTFSQLSSLQALDLSWNAIRSIHPEAFSTLHSLVKLDLTDNQLTTLPLAGLGGLMHLKLKGNLALSQAFSKDSFPKLRILEVPYAYQCCPYGMCASFFKASGQWEAEDLHLDDEESSKRPLGLLARQAENHYDQDLDELQLEMEDSKPHPSVQCSPTPGPFKPCEYLFESWGIRLAVWAIVLLSVLCNGLVLLTVFAGGPVPLPPVKFVVGAIAGANTLTGISCGLLASVDALTFGQFSEYGARWETGLGCRATGFLAVLGSEASVLLLTLAAVQCSVSVSCVRAYGKSPSLGSVRAGVLGCLALAGLAAALPLASVGEYGASPLCLPYAPPEGQPAALGFTVALVMMNSFCFLVVAGAYIKLYCDLPRGDFEAVWDCAMVRHVAWLIFADGLLYCPVAFLSFASMLGLFPVTPEAVKSVLLVVLPLPACLNPLLYLLFNPHFRDDLRRLRPRAGDSGPLAYAAAGELEKSSCDSTQALVAFSDVDLILEASEAGRPPGLETYGFPSVTLISCQQPGAPRLEGSHCVEPEGNHFGNPQPSMDGELLLRAEGSTPAGGGLSGGGGFQPSGLAFASHV | failed
11 | MRLEKFIHLLGERGFDGALISPGTNLYYLTGLRLHEVGERLAILAVSAEGDYRFLAPSLYENVVNNFPATFWHDGENPYAKLREILEELGISKGRILIEDTMRADWLIGIMKLGKFTFQPLSSLIKELRMIKDKEEVKMMEHASRIADKVFEEILTWDLIGMKERELALKIELLIRELSDGIAFEPIVASGENAANPHHEPGERKIRKGDIIILDYGARWKGYCSDITRTIGLGELDERLVKIYEVVKDAQESAFKAVREGIKAKDVDSRAREVISKAGYGEYFIHRTGHGLGLDVHEEPYIGPDGEVILKNGMTFTIEPGIYVPGLGGVRIEDDIVVDEGKGRRLTKAERELIIL | not failed
12 | MRLFSIPPPTLLAGFLAVLIGYASSAAIIWQAAIVAGATTAQISGWMTALGLAMGVSTLTLTLWYRVPVLTAWSTPGAALLVTGLQGLTLNEAIGVFIVTNALIVLCGITGLFARLMRIIPHSLAAAMLAGILLRFGLQAFASLDGQFTLCGSMLLVWLATKAVAPRYAVIAAMIIGIVIVIAQGDVVTTDVVFKPVLPTYITPDFSFAHSLSVALPLFLVTMASQNAPGIAAMKAAGYSAPVSPLIVFTGLLALVFSPFGVYSVGIAAITAAICQSPEAHPDKDQRWLAAAVAGIFYLLAGLFGSAITGMMAALPVSWIQMLAGLALLSTIGGSLYQALHNERERDAAVVAFLVTASGLTLVGIGSAFWGLIAGGVCYVVLNLIADRNRY | failed
13 | MRLLISLIAGALFGGGLFVSGMTDTRKVQGWLDVFGDWDPTLAFVMGGAILPMLLAWRLTEGRKPLAGGSFPALPRPEMDHRLITGSVLFGMGWGLAGLCPGPAIASLSYGGVGGLIFLVAMLAGMAVAPRVGTQLDRLAATA | failed
14 | MRLNHNSYEIFDFMRSRSAIGVLSKIIITIPPINLRMIIGVMGPEGSYSERAAKLWARKNGLRGAEFHYFADIEDAFLAAVGGKTDISVVPVENSIEGSVGVTLDLLLENEAVIIGEIVVKIEHCLLSKGEPEKIRVILSHPQGLAQCRHFLKTHFPEAELRSTGSTSHAARLAGEFEEMAAIASPEAAERYGLKILLSNVQDRKENHTRFIVVRGGEKVLSGKIKGKADSGEKLNTVFGRNAEHKLCSETETGTENSSSYAFKTSLIVYLEKDRPGALYEPLGFFAKRGINLTKIESRPSKKELGDYYFYIDLEGNISDVLIKDALEDIKSKASKKSRSSTLKVLGSYPAFKK | failed
15 | MRLQELVLVKISLVFLWLIGFVFLQRSEENGFEEPNNGEELSWDDLEREAASNISSKRSHAERSHQHESFTKGDELSGDLYELWRQEQNSIAARLDKELKSRWELDELIEEQLSRYQSHYDNSMVSTFLKDVSNLVLPTWIPPHELAAVAWLGDWRPTSILDLVRILAAQNPSFSLSESSLRVLSQLLREIRIEEAVIDEEYAEIQATGVLYLPFSPLCNTRLHEEALRSVQELFGNIHKVISKAQRLRYKVLELVMKKLLNQTDTAEFVVAFAGIQDAIHQFGEQKKLRKIYPAVPSPLKGSGSSS | not failed
16 | MRLSISLGESPCISSLKVRGFTASPQTPNLSISVIVTAFNRREYLRYALLSLKNQEADSFEVVVSKNFSDRVTDKFCSENGFINVTTDSSRSGERVYDALRSSHGDFILFLDDDDIFRRTKISRVSDVISKRNVAFYRNAIFPVTVDGVIATHYQPQMHDPLYLILERVSDVRLLHRHACDFNSSSMGISRSMLDSHASDLRKINLAVDTFYFALAASSRMPLFCDSMIESIYRIMPSSTSRDLRDFYLFSRFERSFLRRYVPDLERIAEIVEGSPAKPVIGRMLSLYKILQYVFEEDRVNLKPSPLDRVRFLLERPFPYSLLYSRIFRDAAMRSEFRRENRIVYGNADRRRRLEHHHHHH | not failed
17 | MRLVEIGRFGAPYALKGGLRFRGEPVVLHLERVYVEGHGWRAIEDLYRVGEELVVHLAGVTDRTLAEALVGLRVYAEVADLPPLEEGRYYYFALIGLPVYVEGRQVGEVVDILDAGAQDVLIIRGVGERLRDRAERLVPLQAPYVRVEEGSIHVDPIPGLFD | not failed
